Laboratory results reported in patent US11045546 (CYTODYN, dated 2021).

Target: C-C chemokine receptor 5 (CCR5) (human, UniProt P51681 1-352)
Experiment: cell-based or functional assay

C-C chemokine receptor 5 (CCR5), sequence (P51681 whole entry): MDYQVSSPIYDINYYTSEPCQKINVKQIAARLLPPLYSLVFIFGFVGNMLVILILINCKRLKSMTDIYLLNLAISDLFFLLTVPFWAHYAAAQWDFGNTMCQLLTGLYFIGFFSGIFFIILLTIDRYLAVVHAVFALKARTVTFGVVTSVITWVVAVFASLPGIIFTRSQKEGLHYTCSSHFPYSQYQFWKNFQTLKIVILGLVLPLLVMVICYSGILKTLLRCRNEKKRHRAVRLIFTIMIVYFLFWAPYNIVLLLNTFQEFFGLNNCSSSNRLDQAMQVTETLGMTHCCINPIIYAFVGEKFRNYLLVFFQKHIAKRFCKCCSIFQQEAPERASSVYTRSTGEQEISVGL

B1: Leronlimab (PRO 140) (antibody, human IgG4, kappa, V domains shown)
VH: EVQLVESGGGLVKPGGSLRLSCAASGYTFSNYWIGWVRQAPGKGLEWIGDIYPGGNYIRNNEKFKDKTTLSADTSKNTAYLQMNSLKTEDTAVYYCGSSFGSNYVFAWFTYWGQGTLVTVSS
VL: DIVMTQSPLSLPVTPGEPASISCRSSQRLLSSYGHTYLHWYLQKPGQSPQLLIYEVSNRFSGVPDRFSGSGSGTDFTLKISRVEAEDVGVYYCSQSTHVPLTFGQGTKVEIKR
  inhibition of MIP-1α-induced calcium mobilization, IC50: 21.2 µg/mL
  inhibition of MIP-1β-induced calcium mobilization, IC50: 39.6 µg/mL
  inhibition of RANTES (CCL5)-induced calcium mobilization, IC50: 59.1 µg/mL
